Legend:
[1] = molecular target: T1, human NMI (N-myc Interacting protein), recombinant protein (human, UniProt Q13287 1-307, limits assumed); experiment: ELISA EC50 against parent B-8
T1 construct: Gene ID: 9111; also called hNMI; antigen
T1 sequence (looked up): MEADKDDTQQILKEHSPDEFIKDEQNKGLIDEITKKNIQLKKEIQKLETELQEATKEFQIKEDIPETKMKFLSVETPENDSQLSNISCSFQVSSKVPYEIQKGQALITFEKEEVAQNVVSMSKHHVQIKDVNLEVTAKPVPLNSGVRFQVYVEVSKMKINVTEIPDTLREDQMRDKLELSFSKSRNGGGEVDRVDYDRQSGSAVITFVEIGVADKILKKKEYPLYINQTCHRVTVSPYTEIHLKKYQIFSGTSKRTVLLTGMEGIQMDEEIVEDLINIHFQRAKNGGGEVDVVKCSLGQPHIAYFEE

[2] = molecular target: T1, human NMI (N-myc Interacting protein), …; experiment: ELISA EC50 against parent B-8; remark: listed apart in the source
[3] = molecular target: T1, human NMI (N-myc Interacting protein), …; experiment: ELISA, binding to hNMI
[4] = molecular target: T1, human NMI (N-myc Interacting protein), …; experiment: ELISA EC50 against parent 98G10
[5] = molecular target: T1, human NMI (N-myc Interacting protein), …; experiment: ELISA EC50 against parent 39B4

B1: B-8 mutant G106K (VH) (antibody, V domains shown)
VH: QSLEESGGDLVKPGASLTLTCTASGFSFSSSYYMCWVRQAPGKGLEWIACIYAGSSGSTYYASWAKGRFTISKTSSTTVTLQMTSLTAADTATYFCAREYSYDDYKDFWGFNLWGPGTLVTVSS
VL: ALVMTQTPSSVSAAVGGTVTINCQASQNIYTNLAWYQQKPGQPPKLLIYGASNLESGVPSRFKGSGSGTEYTLTISDLECDDAATYYCQSSLYSRIADRANAFGGGTEVVVK
Fold decrease in affinity [1]: > 100 fold

B2: B-8 mutant S101K (VH) (antibody, V domains shown)
VH: QSLEESGGDLVKPGASLTLTCTASGFSFSSSYYMCWVRQAPGKGLEWIACIYAGSSGSTYYASWAKGRFTISKTSSTTVTLQMTSLTAADTATYFCAREYKYDDYGDFWGFNLWGPGTLVTVSS
VL: ALVMTQTPSSVSAAVGGTVTINCQASQNIYTNLAWYQQKPGQPPKLLIYGASNLESGVPSRFKGSGSGTEYTLTISDLECDDAATYYCQSSLYSRIADRANAFGGGTEVVVK
Fold decrease in affinity [1]: > 500 fold

B3: B-8-1 (antibody, V domains shown)
VH: QSLEESGGDLVKPGASLTLTCTASGFSFSSSYYMCWVRQAPGKGLEWIACIYAGSSGSTYYASWAKGRFTISKTSSTTVTLQMTSLTAADTATYFCAREYSYDDYGDFWGFNLWGPGTLVTVSS
VL: ALVMTQTPSSVSAAVGGTVTINCQASQNIYTNLAWYQQKPGQPPKLLIYGASNLESGVPSRFKGSGSGTEYTLTISDLECDDAATYYCQSSLESRIADRANAFGGGTEVVVK
notes: also called B-8 Y93E (VL)
Fold decrease in affinity [2]: 2.26 fold
EC50 [3]: 0.698 nM

B4: B-8-2 (antibody, V domains shown)
VH: QSLEESGGDLVKPGASLTLTCTASGFSFSSSYYMCWVRQAPGKGLEWIACIYAGSSGSTYYASWAKGRFTISKTSSTTVTLQMTSLTAADTATYFCAREYSYDDYGDFWGFNLWGPGTLVTVSS
VL: ALVMTQTPSSVSAAVGGTVTINCQASQNIYTNLAWYQQKPGQPPKLLIYGASNLESGVPSRFKGSGSGTEYTLTISDLECDDAATYYCQSRLYSRIADRANAFGGGTEVVVK
notes: also called B-8 S91R (VL)
Fold decrease in affinity [2]: 4.68 fold
EC50 [3]: 1.45 nM

B5: B-8-3 (antibody, V domains shown)
VH: QSLEESGGDLVKPGASLTLTCTASGFSFSSSYEMCWVRQAPGKGLEWIACIYAGSSGSTYYASWAKGRFTISKTSSTTVTLQMTSLTAADTATYFCAREYSYDDYGDFWGFNLWGPGTLVTVSS
VL: ALVMTQTPSSVSAAVGGTVTINCQASQNIYTNLAWYQQKPGQPPKLLIYGASNLESGVPSRFKGSGSGTEYTLTISDLECDDAATYYCQSSLYSRIADRANAFGGGTEVVVK
notes: also called B-8 Y33E (VH)
Fold decrease in affinity [2]: 0.57 fold
EC50 [3]: 0.176 nM

B6: B-8-4 (antibody, V domains shown)
VH: QSLEESGGDLVKPGASLTLTCTASGFSFSSSYYMCWVRQAPGKGLEWIACIYAGSSGSTYEASWAKGRFTISKTSSTTVTLQMTSLTAADTATYFCAREYSYDDYGDFWGFNLWGPGTLVTVSS
VL: ALVMTQTPSSVSAAVGGTVTINCQASQNIYTNLAWYQQKPGQPPKLLIYGASNLESGVPSRFKGSGSGTEYTLTISDLECDDAATYYCQSSLYSRIADRANAFGGGTEVVVK
notes: also called B-8 Y61E (VH)
Fold decrease in affinity [2]: 0.57 fold
EC50 [3]: 0.177 nM

B7: B-8-5 (antibody, V domains shown)
VH: QSLEESGGDLVKPGASLTLTCTASGFSFSSSYYMCWVRQAPGKGLEWIACIYAGSSGSTYYASWAKGRFTISKTSSTTVTLQMTSLTAADTATYFCAREYSYDDYGDFWGANLWGPGTLVTVSS
VL: ALVMTQTPSSVSAAVGGTVTINCQASQNIYTNLAWYQQKPGQPPKLLIYGASNLESGVPSRFKGSGSGTEYTLTISDLECDDAATYYCQSSLYSRIADRANAFGGGTEVVVK
notes: also called B-8 F111A (VH)
Fold decrease in affinity [2]: 0.77 fold
EC50 [3]: 0.238 nM

B8: 98G10 mutant S56N (VH) (antibody, V domains shown)
VH: QEQLEESGGDLVKPEGSLTLTCTASGFSFSASYWICWVRQAPGKGLEWIACIYGGNSGSAYYASWAKGRFTISKTSSTTVTLQMTSLTAADTATYFCARAGYYNYGSAGDIYPSSFKLWGPGTLVTVSS
VL: DIVMTQTPASVEAAVGGTVTINCQASQSISTALAWYQQKPGQPPKLLIYTASKVASGVPSRFSGSGSGTQFTLTISDLECADAATYYCQNYYYSSSSITFGGGTEVVVK
Fold decrease in affinity [4]: > 500 fold

B9: 98G10 mutant S56P (VH) (antibody, V domains shown)
VH: QEQLEESGGDLVKPEGSLTLTCTASGFSFSASYWICWVRQAPGKGLEWIACIYGGPSGSAYYASWAKGRFTISKTSSTTVTLQMTSLTAADTATYFCARAGYYNYGSAGDIYPSSFKLWGPGTLVTVSS
VL: DIVMTQTPASVEAAVGGTVTINCQASQSISTALAWYQQKPGQPPKLLIYTASKVASGVPSRFSGSGSGTQFTLTISDLECADAATYYCQNYYYSSSSITFGGGTEVVVK
Fold decrease in affinity [4]: > 500 fold

B10: 98G10 mutant S57K (VH) (antibody, V domains shown)
VH: QEQLEESGGDLVKPEGSLTLTCTASGFSFSASYWICWVRQAPGKGLEWIACIYGGSKGSAYYASWAKGRFTISKTSSTTVTLQMTSLTAADTATYFCARAGYYNYGSAGDIYPSSFKLWGPGTLVTVSS
VL: DIVMTQTPASVEAAVGGTVTINCQASQSISTALAWYQQKPGQPPKLLIYTASKVASGVPSRFSGSGSGTQFTLTISDLECADAATYYCQNYYYSSSSITFGGGTEVVVK
Fold decrease in affinity [4]: > 500 fold

B11: 98G10 mutant S57Q (VH) (antibody, V domains shown)
VH: QEQLEESGGDLVKPEGSLTLTCTASGFSFSASYWICWVRQAPGKGLEWIACIYGGSQGSAYYASWAKGRFTISKTSSTTVTLQMTSLTAADTATYFCARAGYYNYGSAGDIYPSSFKLWGPGTLVTVSS
VL: DIVMTQTPASVEAAVGGTVTINCQASQSISTALAWYQQKPGQPPKLLIYTASKVASGVPSRFSGSGSGTQFTLTISDLECADAATYYCQNYYYSSSSITFGGGTEVVVK
Fold decrease in affinity [4]: > 500 fold

B12: 98G10 mutant S57R (VH) (antibody, V domains shown)
VH: QEQLEESGGDLVKPEGSLTLTCTASGFSFSASYWICWVRQAPGKGLEWIACIYGGSRGSAYYASWAKGRFTISKTSSTTVTLQMTSLTAADTATYFCARAGYYNYGSAGDIYPSSFKLWGPGTLVTVSS
VL: DIVMTQTPASVEAAVGGTVTINCQASQSISTALAWYQQKPGQPPKLLIYTASKVASGVPSRFSGSGSGTQFTLTISDLECADAATYYCQNYYYSSSSITFGGGTEVVVK
Fold decrease in affinity [4]: > 500 fold

B13: 39B4 mutant A107Q (VH) (antibody, V domains shown)
VH: QEQLVESGGGLVQPEGSLTLTCTASGFSFSSSYWICWVRQAPGKGLEWIACIYAGTSGSTYYASWAKGRFTISKTSSTTVDLQMNSLTAADTATYFCARAGYYTYGQGVYIYPSSFKLWGPGTLVTVSS
VL: DVVMTQTPASVEAAVGGTVTIKCQASESIGNALAWYQQKPGQPPKLLIYSASNLASGVPSRFSGSGSGTQFTLTISDLECADAATYYCQSYYYSSSSITFGGGTEVVVK
Fold decrease in affinity [5]: > 500 fold

B14: 39B4 mutant A107R (VH) (antibody, V domains shown)
VH: QEQLVESGGGLVQPEGSLTLTCTASGFSFSSSYWICWVRQAPGKGLEWIACIYAGTSGSTYYASWAKGRFTISKTSSTTVDLQMNSLTAADTATYFCARAGYYTYGRGVYIYPSSFKLWGPGTLVTVSS
VL: DVVMTQTPASVEAAVGGTVTIKCQASESIGNALAWYQQKPGQPPKLLIYSASNLASGVPSRFSGSGSGTQFTLTISDLECADAATYYCQSYYYSSSSITFGGGTEVVVK
Fold decrease in affinity [5]: > 500 fold

B15: 39B4 mutant G106R (VH) (antibody, V domains shown)
VH: QEQLVESGGGLVQPEGSLTLTCTASGFSFSSSYWICWVRQAPGKGLEWIACIYAGTSGSTYYASWAKGRFTISKTSSTTVDLQMNSLTAADTATYFCARAGYYTYRAGVYIYPSSFKLWGPGTLVTVSS
VL: DVVMTQTPASVEAAVGGTVTIKCQASESIGNALAWYQQKPGQPPKLLIYSASNLASGVPSRFSGSGSGTQFTLTISDLECADAATYYCQSYYYSSSSITFGGGTEVVVK
Fold decrease in affinity [5]: > 500 fold

B16: 39B4 mutant G106Y (VH) (antibody, V domains shown)
VH: QEQLVESGGGLVQPEGSLTLTCTASGFSFSSSYWICWVRQAPGKGLEWIACIYAGTSGSTYYASWAKGRFTISKTSSTTVDLQMNSLTAADTATYFCARAGYYTYYAGVYIYPSSFKLWGPGTLVTVSS
VL: DVVMTQTPASVEAAVGGTVTIKCQASESIGNALAWYQQKPGQPPKLLIYSASNLASGVPSRFSGSGSGTQFTLTISDLECADAATYYCQSYYYSSSSITFGGGTEVVVK
Fold decrease in affinity [5]: > 500 fold

B17: 39B4 mutant V109K (VH) (antibody, V domains shown)
VH: QEQLVESGGGLVQPEGSLTLTCTASGFSFSSSYWICWVRQAPGKGLEWIACIYAGTSGSTYYASWAKGRFTISKTSSTTVDLQMNSLTAADTATYFCARAGYYTYGAGKYIYPSSFKLWGPGTLVTVSS
VL: DVVMTQTPASVEAAVGGTVTIKCQASESIGNALAWYQQKPGQPPKLLIYSASNLASGVPSRFSGSGSGTQFTLTISDLECADAATYYCQSYYYSSSSITFGGGTEVVVK
Fold decrease in affinity [5]: > 500 fold

B18: 39B4 mutant V109Q (VH) (antibody, V domains shown)
VH: QEQLVESGGGLVQPEGSLTLTCTASGFSFSSSYWICWVRQAPGKGLEWIACIYAGTSGSTYYASWAKGRFTISKTSSTTVDLQMNSLTAADTATYFCARAGYYTYGAGQYIYPSSFKLWGPGTLVTVSS
VL: DVVMTQTPASVEAAVGGTVTIKCQASESIGNALAWYQQKPGQPPKLLIYSASNLASGVPSRFSGSGSGTQFTLTISDLECADAATYYCQSYYYSSSSITFGGGTEVVVK
Fold decrease in affinity [5]: > 500 fold

B19: 39B4 mutant Y102F (VH) (antibody, V domains shown)
VH: QEQLVESGGGLVQPEGSLTLTCTASGFSFSSSYWICWVRQAPGKGLEWIACIYAGTSGSTYYASWAKGRFTISKTSSTTVDLQMNSLTAADTATYFCARAGFYTYGAGVYIYPSSFKLWGPGTLVTVSS
VL: DVVMTQTPASVEAAVGGTVTIKCQASESIGNALAWYQQKPGQPPKLLIYSASNLASGVPSRFSGSGSGTQFTLTISDLECADAATYYCQSYYYSSSSITFGGGTEVVVK
Fold decrease in affinity [5]: > 500 fold
